One molecule from PMC4203341 (Developmental cell, 2014) can be followed below.

For the test, the target named is T1, Trim58 PS domain (purified, for SEC-MALLS) (mouse, UniProt Q5NCC9 1-485).
T1 sequence (looked up): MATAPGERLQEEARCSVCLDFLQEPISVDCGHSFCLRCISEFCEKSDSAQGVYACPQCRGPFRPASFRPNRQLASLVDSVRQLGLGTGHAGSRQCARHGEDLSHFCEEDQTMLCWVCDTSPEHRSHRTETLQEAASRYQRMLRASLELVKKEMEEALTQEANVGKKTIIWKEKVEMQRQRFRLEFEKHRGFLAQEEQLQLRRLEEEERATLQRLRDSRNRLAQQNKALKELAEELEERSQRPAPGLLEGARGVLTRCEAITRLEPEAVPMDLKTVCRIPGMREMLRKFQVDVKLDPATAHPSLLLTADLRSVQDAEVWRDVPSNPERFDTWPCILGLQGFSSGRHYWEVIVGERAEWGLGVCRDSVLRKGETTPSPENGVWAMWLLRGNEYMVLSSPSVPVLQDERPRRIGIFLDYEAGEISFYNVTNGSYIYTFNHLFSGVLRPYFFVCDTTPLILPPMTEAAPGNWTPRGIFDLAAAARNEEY
Description: SEC-MALS.

B1: GST-DIC (1–120) (domain or fragment)
chain: MSDKSDLKAELERKKQRLAQIREEKKRKEEERKKKETDQKKEAAVSVQEESDLEKKRREAEALLQSMGLTTDSPIVPPPMSPSSKSVSTPSEAGSQDSGDGAVGSRRGPIKLGMAKITQV
Regarding B1, the “stoichiometry N” value was 1.

Usually stoichiometry N stands for the number of molecules, sites or subunits per partner or assembly.
